This note sets out measurements from publication PMC4357396.

The target of this assay is biotinylated HLA-A*0201-…. Briefly: SPR; BIAcore T100, CM5 chip; A2-EAA on the chip, MEL5 injected (ten serial dilutions, 45 uL/min); KDs by equilibrium analysis in triplicate at 5, 10, 15, 20, 25 and 30°C, nonlinear van't Hoff fit with T0 = 298 K; 10 mM HEPES pH 7.4, 150 mM NaCl, 3 mM EDTA, 0.005% P20; HLA-A*0201-… as negative control surface. In general terms: Surface plasmon resonance follows binding to a sensor surface in real time, without labels.

In turn, MEL5 TCR registered a dH of -14 kcal/mol.
